For test [1], the target named is T1, human PDGF-BB (human, UniProt P01127 82-190).
T1 construct: Bought recombinant protein (Cell Signaling 8921BF or R&D Systems 220-BB); also called huPDGF-BB; recombinant human PDGF-BB
Briefly: SPR, IgG. In general terms: SPR reads the build-up and loss of mass on a sensor chip optically.

Test [2] has as its target T1, human PDGF-BB. Briefly: cell-based or functional assay.
In test [3] the target is T2, cynomolgus PDGF-BB (cynomolgus, UniProt A0A2K5UX81 82-190, Disulfide-linked homodimer of two identical B chains; one copy is given.).
T2 construct: also called cynPDGF-BB
Briefly: ELISA, cynomolgus PDGF-BB (Example 10). For orientation: ELISA stands for enzyme-linked immunosorbent assay.

Test [4] addresses T1, human PDGF-BB. Briefly: ELISA, immobilized human PDGF-BB (Example 9). As to the method: The binding analysis was carried out using an enzyme-linked immunosorbent assay (ELISA)-based technology. The antigen human PDGF-BB (Cell Signaling, Cat. No 8921BF) was immobilized at a concentration of 125 ng/mL in 25 μL in PBS, 0.5% BSA and 0.05% Tween on a 384 well microtiter plate (Thermo Scientific, Cat. No. 464718). Every of the following steps was followed by a washing routine of 3 times 90 μL PBS with dispense and aspiration: 1) blocking step: saturating unbound surface (1 hour, 2% BSA); 2) anti-PDGF-BB antibody in increasing concentrations for 1 hour; 3) detection antibody, dilution=1:3000 (ECL anti-rabbit IgG-POD, NA9340V+ECL anti-human IgG-POD, NA933V or alternatively for murine antibodies ECL anti-mouse IgG-POD; NA 9310V). 20-30 min. after adding the substrate 3,3′,5,5′-tetramethylbenzidine (TMB, Piercenet, Cat. No. 34021) the optical density was determined at 370 nm. The EC₅₀ was calculated with a four parameter logistic model using GraphPad Prism 6.0 software.

For test [5], the target named is T1, human PDGF-BB. Put plainly: SPR, IgG on immobilized human PDGF-BB (Example 17). As to the method:
(§1) The binding analysis was carried out using a surface plasmon resonance spectroscopy-based technology applying a BIAcore B4000 system (GE Healthcare). The antigen human PDGF-BB (Cell Signaling, Cat. No. 8921BF) was immobilized at a concentration of 1 μg/mL in PBS, 0.1% BSA, 0.05 Tween using amine coupling chemistry on a C1 sensor chip (GE Healthcare, Cat. No. BR-1005-35). Anti-PDGF-BB antibody in increasing concentrations was applied in 10 mM HEPES pH 7.2, 150 mM NaCl. Utilizing a read out time of 180 sec. association phase and 600 sec. dissociation phase the apparent kₐ and apparent kd were calculated. The apparent KD (avidity) was calculated using the BIAcore T200 v2.0 fitting software.

The target of test [6] is T2, cynomolgus PDGF-BB. Put plainly: SPR, IgG on immobilized cynomolgus PDGF-BB (Example 18). As to the method: as §1, with “cynomolgus” for “human”, “PDGF-BB” for “PDGF-BB (Cell Signaling, Cat. No. 8921BF)”, “0.05%” for “0.05”
The target of test [7] is T1, human PDGF-BB. Briefly: SPR kinetic screening, IgG on immobilized human PDGF-BB (Example 27). As to the method:
Binding of anti-PDGF-BB antibodies to human PDGF-BB was investigated by surface plasmon resonance using a BIACORE T200 instrument (GE Healthcare). Around 20 resonance units (RU) of recombinant human PDGF-BB (5 μg/ml; ordering code 220-BB; R&D Systems) were coupled on a Series S C1 chip (GE Healthcare BR-1005-35) at pH 4.0 by using an amine coupling kit supplied by GE Healthcare. Running buffer for immobilization was HBS-N pH 7.4 (10 mM HEPES, 150 mM NaCl, pH 7.4, GE Healthcare). For the following kinetic characterization, running and dilution buffer was HBS-P pH 7.4 (10 mM HEPES, 150 mM NaCl, 0.05% Surfactant P20, pH 7.4, GE Healthcare). The flow cell was set to 25° C.—and the sample block set to 12° C.—and primed with running buffer twice.

The target of test [8] is T2, cynomolgus PDGF-BB. Briefly: SPR, apparent KD (avidity), IgG on immobilized cynomolgus PDGF-BB (Example 18). The protocol: as §1, with “cynomolgus” for “human”, “PDGF-BB” for “PDGF-BB (Cell Signaling, Cat. No. 8921BF)”, “0.05%” for “0.05”
Test [9] deals with T1, human PDGF-BB. Briefly: inhibition ELISA: biotinylated huPDGF-BB binding to immobilized Fc-tagged huPDGF-Rβ (Example 15). The protocol: The protein-protein interaction inhibition analysis of human PDGF-BB to the human PDGF-BB receptor was carried out using an enzyme-linked immunosorbent assay (ELISA)-based technology. The human Fc-tagged PDGF-BB receptor protein (RnD, Cat. No. 385-PR-100) was immobilized at a concentration of […] in 25 μL in PBS, 0.5% BSA and 0.05% Tween on a 384 well microtiter plate (Thermo Scientific Cat. No. 464718). Every of the following steps was followed by a washing routine of 3 times 90 μL PBS with dispense and aspiration: 1) blocking step saturating unbound surface (1 hour, 2% BSA); 2) 15 μL anti-PDGF-BB antibody in increasing concentrations was incubated with 15 μL biotinylated human PDGF-BB (Cell Signaling, Cat. No. 8921BF) at 75 nM in a volume of 30 μL for 1 hour; 3) detection was achieved using peroxidase-labeled streptavidin (Roche Diagnostics GmbH, Mannheim, Germany, Cat. No. 11089153001). 20-30 min. after adding the substrate 3,3′,5,5′-tetramethylbenzidine (TMB, Piercenet, Cat. No. 34021) the optical density was determined at 370 nm. The IC₅₀ was calculated with a four parameter logistic model using GraphPad Prism 6.0 software.

T1 sequence (P01127 82-190 limits assumed): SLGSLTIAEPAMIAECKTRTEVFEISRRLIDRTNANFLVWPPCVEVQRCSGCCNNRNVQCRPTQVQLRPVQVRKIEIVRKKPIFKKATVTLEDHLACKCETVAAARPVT
T2 sequence (A0A2K5UX81 entry or part of it limits assumed): as the sequence (P01127 82-190 limits assumed) above, with I7V counted along it

B1: antibody 0058 (antibody, V domains shown)
VH: EVQLVESGGGLVQPGGSLRLSCAASGFTFSSFWMTWVRQAPGKGLEWVASISAGGGITHYPDSVKDRFTVSRDNAKNSLYLQLNSLRAEDTAVYYCAESGGDIYSDFDYWGQGTLVTVSS
VL: not shown
notes: Human antibody from a human Ig locus transgenic rabbit; IgG
Broadly, the EC50 is the concentration that produces a half-maximal response. Read a low EC50 as greater potency. Broadly, the koff is a measure of how fast the partners let go of each other. Low values mean a long-lived complex, high ones a short-lived complex. Usually kon stands for a measure of how fast the partners come together. Lower therefore signals slow association. Usually t½ stands for the time in which the quantity being followed falls by half. A lower t½ goes with fast loss. As usually defined, the IC50 is the point on the concentration scale where inhibition reaches its midpoint. For the molecule B1, the T½ in the test with human PDGF-BB [1] came out at 1.42 h. Moreover, in the test with human PDGF-BB [2], the “IC50 Phospho-Inhibition” value was determined as 2.9 ng/mL and the “IC50 Proliferation 3T3” value stood at 79.3 ng/mL. In the test with cynomolgus PDGF-BB [3], this molecule showed an EC50 of 3.4 ng/mL. Also, the midpoint of the response with human PDGF-BB [4], the EC50, lay at 0.0401 µg/mL. In the test with human PDGF-BB [5], this molecule showed a koff of 0.00011 s⁻¹ and a kon of 1.8e+06 M⁻¹ s⁻¹. In the test with cynomolgus PDGF-BB [6], this molecule showed a koff of 6.53e-05 s⁻¹ and a kon of 2.27e+06 M⁻¹ s⁻¹. Moreover, in the test with human PDGF-BB [7], the koff was determined as 0.000291 s⁻¹ and the t½ was 40 min. Besides, the Kd in the test with cynomolgus PDGF-BB [8] was 0.0288 nM. Further, the IC50 in the test with human PDGF-BB [9] was 0.0425 µg/mL.

B2: antibody 0060 (antibody, V domains shown)
VH: EVQLLESGGDLVQPGGSLRLSCAASGFTFRSYAMSWVRQAPGKGLEWVSGISAGGGYIYYADSVTGRFTSSRDNYKNTLYLQMNRLRVEDTAVYYCARFYPGYNSDTYYYDGMDVWGQGTTVTVSS
VL: not shown
notes: as for B1
In the case of B2, the T½ in the test with human PDGF-BB [1] came out at 1.9 h. Also, in the test with human PDGF-BB [2], the “IC50 Phospho-Inhibition” value turned out to be 1.6 ng/mL and the “IC50 Proliferation 3T3” value turned out to be 36.3 ng/mL. For the same molecule, the response with cynomolgus PDGF-BB [3] was half-maximal at 41.5 ng/mL (EC50). In the test with human PDGF-BB [4], this molecule gave an EC50 of 0.0375 µg/mL. Moreover, in the test with human PDGF-BB [5], the koff was found to be 2.9e-05 s⁻¹ and the kon stood at 370000 M⁻¹ s⁻¹. Further, in the test with cynomolgus PDGF-BB [6], the koff was less than 1e-05 s⁻¹ and the kon stood at 330000 M⁻¹ s⁻¹. Also, in the test with human PDGF-BB [7], the koff was 0.000264 s⁻¹ and the t½ amounted to 44 min. Further, in the test with cynomolgus PDGF-BB [8], the Kd was less than 0.0303 nM. In addition, the IC50 with human PDGF-BB [9] was found to be 0.0554 µg/mL.

B3: antibody 0064 (antibody, V domains shown)
VH: EVQLVESGGGLVQPGGSLRLSCAASGFTFSSYWMSWVRQAPGKGLEWVSTISDGGGTTSYADSVKGRFTISRDNSKNTLYLQMNSLRAEDTAVYSCAESGGATDYLFDYWGQGTLVTVSS
VL: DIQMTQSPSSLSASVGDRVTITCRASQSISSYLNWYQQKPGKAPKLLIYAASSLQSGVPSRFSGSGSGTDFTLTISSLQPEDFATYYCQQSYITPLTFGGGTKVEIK
notes: as for B1
With B3, the T½ with human PDGF-BB [1] is 1.9 h. In addition, the “IC50 Proliferation 3T3” value with human PDGF-BB [2] is 62 ng/mL. Besides, the EC50 in the test with cynomolgus PDGF-BB [3] amounted to 7.41 ng/mL; in the test with human PDGF-BB [4] it was 0.016 µg/mL. In addition, the koff with human PDGF-BB [5] came to 5.5e-05 s⁻¹; in the test with cynomolgus PDGF-BB [6], 4.42e-05 s⁻¹; with human PDGF-BB [7] it was 0.000135 s⁻¹. Further, the results for the on-rate (kon) with human PDGF-BB [5] and with cynomolgus PDGF-BB [6] were 720000 M⁻¹ s⁻¹ and 740000 M⁻¹ s⁻¹, respectively. Further, in the test with human PDGF-BB [7], the t½ is 85 min. The Kd in the test with cynomolgus PDGF-BB [8] is 0.0596 nM. Also, the IC50 with human PDGF-BB [9] was 0.0343 µg/mL.
